Reference: the supplement of paper PMC9112550, “Optimization of the antimicrobial peptide Bac7 by deep mutational scanning” (BMC Biology, 2022)

System: Escherichia coli TOP10
Assay: shrunken log2 fold change of peptide-encoding DNA abundance (4.5 h post-induction vs induction); higher = less antimicrobial activity (less host growth inhibition)
Settings: time post-induction: 4.5 h; library: site-saturation at positions 5, 18, 19, 20
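Further: peptides expressed intracellularly from a pBAD plasmid library in pooled LB shake-flask culture, induced with 0.3% L-arabinose, DNA abundance read by NGS, three biological replicates, DESeq2 with apeglm shrinkage.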

Row | Sequence | shrunken log2 fold change
1 | RRIRPRPPRLPRPRPRPTARPRP | 0.352
2 | RRIRPRPPRLPRPRPRPTAWPRP | 0.666
3 | RRIRPRPPRLPRPRPRPTCEPRP | 0.252
4 | RRIRPRPPRLPRPRPRPTCMPRP | 0.219
5 | RRIRPRPPRLPRPRPRPTDHPRP | -0.114
6 | RRIRPRPPRLPRPRPRPTDKPRP | 0.0429
7 | RRIRPRPPRLPRPRPRPTDNPRP | -0.134
8 | RRIRPRPPRLPRPRPRPTDYPRP | -0.132
9 | RRIRPRPPRLPRPRPRPTEVPRP | -0.342
10 | RRIRPRPPRLPRPRPRPTFFPRP | 0.212
11 | RRIRPRPPRLPRPRPRPTGIPRP | 0.726
12 | RRIRPRPPRLPRPRPRPTGQPRP | 0.152
13 | RRIRPRPPRLPRPRPRPTHQPRP | 0.615
14 | RRIRPRPPRLPRPRPRPTICPRP | 0.172
15 | RRIRPRPPRLPRPRPRPTKTPRP | 0.132
16 | RRIRPRPPRLPRPRPRPTLFPRP | 0.2
17 | RRIRPRPPRLPRPRPRPTPIPRP | 0.336
18 | RRIRPRPPRLPRPRPRPTPLPRP | 0.453
19 | RRIRPRPPRLPRPRPRPTPVPRP | 0.379
20 | RRIRPRPPRLPRPRPRPTQTPRP | 0.147
21 | RRIRPRPPRLPRPRPRPTRNPRP | 0.201
22 | RRIRPRPPRLPRPRPRPTRTPRP | 0.508
23 | RRIRPRPPRLPRPRPRPTSRPRP | -0.0592
24 | RRIRPRPPRLPRPRPRPTTEPRP | 0.109
25 | RRIRPRPPRLPRPRPRPTTHPRP | 0.0944

Row | Sequence | shrunken log2 fold change
26 | RRIRPRPPRLPRPRPRPTWHPRP | 0.316
27 | RRIRPRPPRLPRPRPRPTWIPRP | 0.184
28 | RRIRPRPPRLPRPRPRPTWPPRP | 0.47
29 | RRIRPRPPRLPRPRPRPTYLPRP | -0.113
30 | RRIRPRPPRLPRPRPRPVAWPRP | 0.225
31 | RRIRPRPPRLPRPRPRPVDAPRP | 0.173
32 | RRIRPRPPRLPRPRPRPVDPPRP | 0.0557
33 | RRIRPRPPRLPRPRPRPVDSPRP | -0.177
34 | RRIRPRPPRLPRPRPRPVEDPRP | 0.0885
35 | RRIRPRPPRLPRPRPRPVFGPRP | 0.206
36 | RRIRPRPPRLPRPRPRPVFIPRP | -0.235
37 | RRIRPRPPRLPRPRPRPVFQPRP | 0.315
38 | RRIRPRPPRLPRPRPRPVGGPRP | 0.408
39 | RRIRPRPPRLPRPRPRPVGNPRP | -0.0903
40 | RRIRPRPPRLPRPRPRPVHVPRP | 0.18
41 | RRIRPRPPRLPRPRPRPVKKPRP | -0.016
42 | RRIRPRPPRLPRPRPRPVKTPRP | 0.0289
43 | RRIRPRPPRLPRPRPRPVLNPRP | -0.113
44 | RRIRPRPPRLPRPRPRPVLSPRP | 0.076
45 | RRIRPRPPRLPRPRPRPVMRPRP | 0.95
46 | RRIRPRPPRLPRPRPRPVMSPRP | 0.0198
47 | RRIRPRPPRLPRPRPRPVNFPRP | -0.59
48 | RRIRPRPPRLPRPRPRPVNKPRP | -0.521
49 | RRIRPRPPRLPRPRPRPVNLPRP | -0.136
50 | RRIRPRPPRLPRPRPRPVNVPRP | -0.326

Row | Sequence | shrunken log2 fold change
51 | RRIRPRPPRLPRPRPRPVPIPRP | 0.0844
52 | RRIRPRPPRLPRPRPRPVPTPRP | 0.424
53 | RRIRPRPPRLPRPRPRPVQCPRP | -0.0846
54 | RRIRPRPPRLPRPRPRPVQWPRP | 0.151
55 | RRIRPRPPRLPRPRPRPVRGPRP | 0.898
56 | RRIRPRPPRLPRPRPRPVSPPRP | 0.0647
57 | RRIRPRPPRLPRPRPRPVYHPRP | -0.388
58 | RRIRPRPPRLPRPRPRPWAGPRP | -0.0189
59 | RRIRPRPPRLPRPRPRPWCQPRP | 0.0224
60 | RRIRPRPPRLPRPRPRPWFCPRP | 0.138
61 | RRIRPRPPRLPRPRPRPWHMPRP | -0.0632
62 | RRIRPRPPRLPRPRPRPWIDPRP | -0.35
63 | RRIRPRPPRLPRPRPRPWIGPRP | -0.0305
64 | RRIRPRPPRLPRPRPRPWKCPRP | 0.0176
65 | RRIRPRPPRLPRPRPRPWKEPRP | -0.164
66 | RRIRPRPPRLPRPRPRPWKHPRP | -0.19
67 | RRIRPRPPRLPRPRPRPWLRPRP | 0.421
68 | RRIRPRPPRLPRPRPRPWMDPRP | -0.934
69 | RRIRPRPPRLPRPRPRPWMHPRP | 0.0123
70 | RRIRPRPPRLPRPRPRPWNMPRP | -0.189
71 | RRIRPRPPRLPRPRPRPWPQPRP | 0.0953
72 | RRIRPRPPRLPRPRPRPWQYPRP | 0.0173
73 | RRIRPRPPRLPRPRPRPWYWPRP | -0.161
74 | RRIRPRPPRLPRPRPRPYASPRP | -0.0775
75 | RRIRPRPPRLPRPRPRPYEKPRP | -0.0835

Row | Sequence | shrunken log2 fold change
76 | RRIRPRPPRLPRPRPRPYFCPRP | -0.293
77 | RRIRPRPPRLPRPRPRPYFQPRP | -0.593
78 | RRIRPRPPRLPRPRPRPYGGPRP | -0.153
79 | RRIRPRPPRLPRPRPRPYGQPRP | -0.169
80 | RRIRPRPPRLPRPRPRPYIAPRP | -0.395
81 | RRIRPRPPRLPRPRPRPYIFPRP | -0.984
82 | RRIRPRPPRLPRPRPRPYIKPRP | -0.939
83 | RRIRPRPPRLPRPRPRPYKVPRP | -0.338
84 | RRIRPRPPRLPRPRPRPYLYPRP | -0.672
85 | RRIRPRPPRLPRPRPRPYMYPRP | -0.634
86 | RRIRPRPPRLPRPRPRPYNHPRP | -1.2
87 | RRIRPRPPRLPRPRPRPYRHPRP | -0.483
88 | RRIRPRPPRLPRPRPRPYRLPRP | -0.136
89 | RRIRPRPPRLPRPRPRPYSVPRP | -1.01
90 | RRIRPRPPRLPRPRPRPYSYPRP | -0.228
91 | RRIRPRPPRLPRPRPRPYTCPRP | -0.179
92 | RRIRPRPPRLPRPRPRPYVEPRP | -0.415
93 | RRIRPRPPRLPRPRPRPYVGPRP | -0.157
94 | RRIRPRPPRLPRPRPRPYYKPRP | -0.215
95 | RRIRQRPPRLPRPRPRPAAGPRP | 0.0657
96 | RRIRQRPPRLPRPRPRPAAKPRP | -0.0272
97 | RRIRQRPPRLPRPRPRPAAMPRP | 0.248
98 | RRIRQRPPRLPRPRPRPAERPRP | 0.179
99 | RRIRQRPPRLPRPRPRPAESPRP | 0.0234
100 | RRIRQRPPRLPRPRPRPAFIPRP | -0.239

Row | Sequence | shrunken log2 fold change
101 | RRIRQRPPRLPRPRPRPAGHPRP | 0.000618
102 | RRIRQRPPRLPRPRPRPAKHPRP | 0.204
103 | RRIRQRPPRLPRPRPRPAKVPRP | 0.325
104 | RRIRQRPPRLPRPRPRPALEPRP | 0.275
105 | RRIRQRPPRLPRPRPRPAMSPRP | 0.322
106 | RRIRQRPPRLPRPRPRPANAPRP | -0.0699
107 | RRIRQRPPRLPRPRPRPANYPRP | -0.0497
108 | RRIRQRPPRLPRPRPRPAPKPRP | 0.148
109 | RRIRQRPPRLPRPRPRPAQGPRP | -0.0366
110 | RRIRQRPPRLPRPRPRPARDPRP | 0.0373
111 | RRIRQRPPRLPRPRPRPASCPRP | 0.182
112 | RRIRQRPPRLPRPRPRPASPPRP | -0.0456
113 | RRIRQRPPRLPRPRPRPATSPRP | 0.0218
114 | RRIRQRPPRLPRPRPRPAVFPRP | -0.0406
115 | RRIRQRPPRLPRPRPRPAVTPRP | 0.167
116 | RRIRQRPPRLPRPRPRPAWKPRP | 0.0232
117 | RRIRQRPPRLPRPRPRPAYCPRP | -0.043
118 | RRIRQRPPRLPRPRPRPAYMPRP | -0.263
119 | RRIRQRPPRLPRPRPRPCCDPRP | -0.0081
120 | RRIRQRPPRLPRPRPRPCCNPRP | -0.0838
121 | RRIRQRPPRLPRPRPRPCCTPRP | -0.137
122 | RRIRQRPPRLPRPRPRPCFTPRP | -0.684
123 | RRIRQRPPRLPRPRPRPCHAPRP | -0.126
124 | RRIRQRPPRLPRPRPRPCIYPRP | -0.204
125 | RRIRQRPPRLPRPRPRPCKFPRP | -0.194

Row | Sequence | shrunken log2 fold change
126 | RRIRQRPPRLPRPRPRPCPEPRP | -0.249
127 | RRIRQRPPRLPRPRPRPCPVPRP | -0.477
128 | RRIRQRPPRLPRPRPRPCTMPRP | -0.804
129 | RRIRQRPPRLPRPRPRPCTTPRP | -0.104
130 | RRIRQRPPRLPRPRPRPCVCPRP | -0.0231
131 | RRIRQRPPRLPRPRPRPCVFPRP | -0.049
132 | RRIRQRPPRLPRPRPRPCVLPRP | -0.298
133 | RRIRQRPPRLPRPRPRPCVYPRP | 4.4
134 | RRIRQRPPRLPRPRPRPCWTPRP | -0.0267
135 | RRIRQRPPRLPRPRPRPCYAPRP | -0.251
136 | RRIRQRPPRLPRPRPRPDACPRP | 0.0301
137 | RRIRQRPPRLPRPRPRPDADPRP | -0.0253
138 | RRIRQRPPRLPRPRPRPDEAPRP | -0.0116
139 | RRIRQRPPRLPRPRPRPDEDPRP | -0.0326
140 | RRIRQRPPRLPRPRPRPDEIPRP | -0.00251
141 | RRIRQRPPRLPRPRPRPDFGPRP | 0.0964
142 | RRIRQRPPRLPRPRPRPDFTPRP | -0.134
143 | RRIRQRPPRLPRPRPRPDGWPRP | 0.228
144 | RRIRQRPPRLPRPRPRPDHTPRP | -0.0589
145 | RRIRQRPPRLPRPRPRPDIKPRP | -0.0227
146 | RRIRQRPPRLPRPRPRPDILPRP | -0.0607
147 | RRIRQRPPRLPRPRPRPDIPPRP | -0.811
148 | RRIRQRPPRLPRPRPRPDLVPRP | -0.0031
149 | RRIRQRPPRLPRPRPRPDPIPRP | -0.0263
150 | RRIRQRPPRLPRPRPRPDPTPRP | 0.119
